The values that follow come from patent US20170137511A1 (CALYPSO BIOTECH, published 2017).

Sequences and labels used below:
B1: huB-E29-34 (antibody, human IgG1, kappa, V domains shown)
VH: EVRLMASGGGLVQPGGSLRLSCAASEFTFSNYAMSWVRQAPGKGLEWVATISRGGDYTYYPESVKGRFTISRDNSKNTLYLQMNSLRAEDTAVYYCARRVSFITGGYAMDYWGQGTLVTVSS
VL: DVVMTQSPLSLPVTLGQPASISCRSSQSIVDITGNTYLEWFQQRPGQSPRRLIYKVFNRFSGVPDRFSGSGSGTDFTLKISRVEAEDVGVYYCFQESFVPYTFGQGTKLEIKR
notes: Humanized B-E29 variant; human IgG1 (G1m3) / kappa (Km3), produced in CHO cells; also called huVH21/huVL6
B2: huB-E29-12 (antibody, human IgG1, kappa, V domains shown)
VH: EVRLMASGGGLVQPGGSLRLSCAASEFTFSNYAMSWVRQAPGKGLEWVATISRGGDYTYYPDTVKGRFTISRDNSKNTLYLQMNSLRAEDTAVYYCARRVSMITGGAAMDYWGQGTLVTVSS
VL: DVVMTQSPLSLPVTLGQPASISCRSSQSIVDITGNTYLEWYQQRPGQSPRLLIYKVFNRFSGVPDRFSGSGSGTDFTLKISRVEAEDVGVYYCFQDSFVPYTFGQGTKLEIKR
notes: Humanized B-E29 variant; human IgG1 (G1m3) / kappa (Km3), produced in CHO cells; also called huVH10/huVL1
B3: huB-E29-9 (antibody, human IgG1, kappa, V domains shown)
VH: EVRLMASGGGLVQPGGSLRLSCAASEFTFSNYAMSWVRQAPGKGLEWVATISRGGDYTYYPDTVKGRFTISRDNSKNTLYLQMNSLRAEDTAVYYCARRVSAITGGWAMDYWGQGTLVTVSS
VL: DVVMTQSPLSLPVTLGQPASISCRSSQSIVDITGNTYLEWYQQRPGQSPRLLIYKVFNRFSGVPDRFSGSGSGTDFTLKISRVEAEDVGVYYCFQDSFVPYTFGQGTKLEIKR
notes: Humanized B-E29 variant; human IgG1 (G1m3) / kappa (Km3), produced in CHO cells; also called huVH7/huVL1
B4: huB-E29-19 (antibody, human IgG1, kappa, V domains shown)
VH: EVRLMASGGGLVQPGGSLRLSCAASEFTFSNYAMSWVRQAPGKGLEWVATISRGGDYTYYPDSVKGRFTISRDNSKNTLYLQMNSLRAEDTAVYYCARRVSMITGGWAMDYWGQGTLVTVSS
VL: DVVMTQSPLSLPVTLGQPASISCRSSQSIVDITGNTYLEWYQQRPGQSPRLLIYKVFNRFSGVPDRFSGSGSGTDFTLKISRVEAEDVGVYYCFQDTFVPYTFGQGTKLEIKR
notes: Humanized B-E29 variant; human IgG1 (G1m3) / kappa (Km3), produced in CHO cells; also called huVH1/huVL5
B5: huB-E29-8 (antibody, human IgG1, kappa, V domains shown)
VH: EVRLMASGGGLVQPGGSLRLSCAASEFTFSNYAMSWVRQAPGKGLEWVATISRGGDYTYYPDTVKGRFTISRDNSKNTLYLQMNSLRAEDTAVYYCARRVSIITGGWAMDYWGQGTLVTVSS
VL: DVVMTQSPLSLPVTLGQPASISCRSSQSIVDITGNTYLEWYQQRPGQSPRLLIYKVFNRFSGVPDRFSGSGSGTDFTLKISRVEAEDVGVYYCFQDSFVPYTFGQGTKLEIKR
notes: Humanized B-E29 variant; human IgG1 (G1m3) / kappa (Km3), produced in CHO cells; also called huVH6/huVL1
B6: huB-E29-11 (antibody, human IgG1, kappa, V domains shown)
VH: EVRLMASGGGLVQPGGSLRLSCAASEFTFSNYAMSWVRQAPGKGLEWVATISRGGDYTYYPDTVKGRFTISRDNSKNTLYLQMNSLRAEDTAVYYCARRVSMITGGFAMDYWGQGTLVTVSS
VL: DVVMTQSPLSLPVTLGQPASISCRSSQSIVDITGNTYLEWYQQRPGQSPRLLIYKVFNRFSGVPDRFSGSGSGTDFTLKISRVEAEDVGVYYCFQDSFVPYTFGQGTKLEIKR
notes: Humanized B-E29 variant; human IgG1 (G1m3) / kappa (Km3), produced in CHO cells; also called huVH9/huVL1
B7: huB-E29-15 (antibody, human IgG1, kappa, V domains shown)
VH: EVRLMASGGGLVQPGGSLRLSCAASEFTFSNYAMSWVRQAPGKGLEWVATISRGGDYTYYPDSVKGRFTISRDNSKNTLYLQMNSLRAEDTAVYYCARRVSMITGGWAIDYWGQGTLVTVSS
VL: DVVMTQSPLSLPVTLGQPASISCRSSQSIVDITGNTYLEWYQQRPGQSPRLLIYKVFNRFSGVPDRFSGSGSGTDFTLKISRVEAEDVGVYYCFQDSFVPYTFGQGTKLEIKR
notes: Humanized B-E29 variant; human IgG1 (G1m3) / kappa (Km3), produced in CHO cells; also called huVH13/huVL1
B8: huB-E29-31 (antibody, human IgG1, kappa, V domains shown)
VH: EVRLMASGGGLVQPGGSLRLSCAASEFTFSNYAMSWVRQAPGKGLEWVATISRGGDYTYYPDSVKGRFTISRDNSKNTLYLQMNSLRAEDTAVYYCARRVSFITGGYAMDYWGQGTLVTVSS
VL: DVVMTQSPLSLPVTLGQPASISCRSSQSIVDITGNTYLEWFQQRPGQSPRRLIYKVFNRFSGVPDRFSGSGSGTDFTLKISRVEAEDVGVYYCFQESFVPYTFGQGTKLEIKR
notes: Humanized B-E29 variant; human IgG1 (G1m3) / kappa (Km3), produced in CHO cells; also called huVH20/huVL6
B9: huB-E29-22 (antibody, human IgG1, kappa, V domains shown)
VH: EVQLVESGGGLVQPGGSLRLSCAASEFTFSNYAMSWVRQAPGKGLEWVATISRGGDYTYYPDSVKGRFTISRDNSKNTLYLQMNSLRAEDTAVYYCARRVSFITGGYAFDYWGQGTLVTVSS
VL: DVVMTQSPLSLPVTLGQPASISCRSSQSIVDITGNTYLEWFQQRPGQSPRRLIYKVFNRFSGVPDRFSGSGSGTDFTLKISRVEAEDVGVYYCFQESFVPYTFGQGTKLEIKR
notes: Humanized B-E29 variant; human IgG1 (G1m3) / kappa (Km3), produced in CHO cells; also called huVH16/huVL6

Chain of recombinant human IL-15 (Prospec cat no. CYT230) (P40933 other isoform, or with tags, fused parts or gaps): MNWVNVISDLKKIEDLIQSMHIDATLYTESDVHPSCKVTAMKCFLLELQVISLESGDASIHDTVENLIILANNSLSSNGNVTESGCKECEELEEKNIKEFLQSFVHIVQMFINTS

The assay has as its target recombinant human IL-15 (Prospec cat no. CYT230) (human, UniProt P40933 49-162). The experiment in a line: ELISA, plate-bound human IL-15; printed as BC50 (half-maximal binding concentration). On the procedure: Maxisorp plates were coated with recombinant human IL-15 (Prospec cat no. CYT230) or Rhesus macaque IL-15 (MyBiosource cat. no. MBS948894) at 100 ng/well in carbonate coating buffer for 2 hours at 37° C. Since published sequences of Rhesus macaque and Cynomolgus monkey IL-15 are identical, such recombinant IL-15 protein was referred to as Macaque Monkey IL-15. Tested human IL-15 recombinant protein has a sequence identical to that provided in SEQ ID NO: 1 but with an additional methionine at the N-terminal position as usually done for expressing recombinant proteins in E. Coli. Tested recombinant Macaque Monkey IL-15 was produced in yeast and has a sequence identical to that provided in SEQ ID NO: 4 but with an additional N-terminal His tag.
The plate was then blocked with 2% normal goat serum for 30 min at 37° C. and washed 6 times with PBS-Tween (0.05% Tween-20 in PBS, v/v). Test antibodies were added to the plate in triplicate at various dilutions in PBS-Tween and the plate was incubated with gentle rocking at room temperature for 2 hours. The plate was then washed 6 times with PBS-Tween and an appropriate dilution of goat anti-human IgG antibody (Millipore cat. no. AP309P) conjugated to horseradish peroxidase (HRP) was added to the plate and left rocking at room temperature for 1 hour. The plate was then washed 6 times with PBS-Tween and incubated with TMB substrate. The reaction was stopped by the addition of 1M H₂SO₄ and read at 450 nm. Dose response curves of absorbance versus concentration were plotted and analyzed to determine half-maximal binding concentrations (BC₅₀) using the Graphpad Prism software. BC₅₀ values expressed as molarity were extrapolated from concentration in ng/ml using a 150 kDa molecular weight value for all antibodies.
For the molecule B1, the EC50 – broadly, the midpoint of the concentration-response curve – was 3.89 nM.
The same measure for B2: 0.593 nM; for B3: 1.99 nM.
The same measure for B4: 2.21 nM; for B5: 1.79 nM.
In the case of B6, the EC50 worked out at 0.98 nM.
For the molecule B7, the EC50 is 2.53 nM.
Turning to B8, the EC50 amounted to 3.51 nM.
For the molecule B9, the EC50 was 3.87 nM.
